The text below walks through data of publication PMC8041783.

The target in the test is His-FliI(R33A) (Salmonella enterica) (UniProt P26465).

“His-FliI(R33A) (from UniProt P26465 1-456) (enzyme)” had an ATPase activity (Malachite Green assay, 4 mM ATP) at 17 to 85 nM FliI(R33A) (nmol of phosphate min^−1 μg^−1) of 1.21.
